Experimental data from patent US20090269779.

What was measured:
[1] = biological target: galectin-3 H64P mutant, P17931
[2] = biological target: galectin-3 A33G and H64P double mutant, P17931
[3] = biological target: galectin-3 A33G mutant, P17931
[4] = biological target: human wild type galectin-3, P17931
human wild type galectin-3, P17931, sequence (P17931 whole entry): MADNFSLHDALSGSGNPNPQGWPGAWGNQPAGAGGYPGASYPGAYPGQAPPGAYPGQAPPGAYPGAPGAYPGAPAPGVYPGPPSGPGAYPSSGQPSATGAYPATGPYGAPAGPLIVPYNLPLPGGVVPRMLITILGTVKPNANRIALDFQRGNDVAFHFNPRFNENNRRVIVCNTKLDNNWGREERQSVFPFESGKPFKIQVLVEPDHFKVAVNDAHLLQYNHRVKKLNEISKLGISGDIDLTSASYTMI

galectin-3 H64P mutant, P17931, sequence (P17931 whole entry, looked up, stated change not applied): as the sequence (P17931 whole entry) above
galectin-3 A33G and H64P double mutant, P17931, sequence (P17931 whole entry, looked up, stated change not applied): as the sequence (P17931 whole entry) above
galectin-3 A33G mutant, P17931, sequence (P17931 whole entry A33G): as the sequence (P17931 whole entry) above, with A33G counted along it

B1: activated human recombinant MMP-9 (protein)
chain: MRTPRCGVPDLGRFQTFEGDLKWHHHNITYWIQNYSEDLPRAVIDDAFARAFALWSAVTPLTFTRVYSRDADIVIQFGVAEHGDGYPFDGKDGLLAHAFPPGPGIQGDAHFDDDELWSLGKGVVVPTRFGNADGAACHFPFIFEGRSYSACTTDGRSDGLPWCSTTANYDTDDRFGFCPSERLYTQDGNADGKPCQFPFIFQGQSYSACTTDGRSDGYRWCATTANYDRDKLFGFCPTRADSTVMGGNSAGELCVFPFTFLGKEYSTCTSEGRGDGRLWCATTSNFDSDKKWGFCPDQGYSLFLVAAHEFGHALGLDHSSVPEALMYPMYRFTEGPPLHKDDVNGIRHLYGPRPEPEPRPPTTTTPQPTAPPTVCPTGPPTVHPSERPTAGPTGPPSAGPTGPPTAGPSTATTVPLSPVDDACNVNIFDAIAEIGNQLYLFKDGKYWRFSEGRGSRPQGPFLIADKWPALPRKLDSVFEERLSKKLFFFSGRQVWVYTGASVLGPRRLDKLGLGADVAQVTGALRSGRGKMLLFSGRRLWRFDVKAQMVDPRSASEVDRMFPGVPLDTHDVFQYREKAYFCQDRFYWRVSSRSELNQVDQVGYVTYDILQCPED
cleavage of recombinant galectin-3 (Western blot) [1]: MMP-9 did not cleave the H64P mutant | cleavage of recombinant galectin-3 (Western blot) [2]: Double mutation at A33G and H64P showed complete resistance to cleavage by both MMP-2 and MMP-9 | cleavage of recombinant galectin-3 (Western blot) [3]: Wild type and A33G galectin-3 produced a polypeptide of ~22 kDa consistent with cleavage at Ala62-Tyr63 | cleavage of recombinant galectin-3 (Western blot) [4]: Wild type and A33G galectin-3 produced a polypeptide of ~22 kDa consistent with cleavage at Ala62-Tyr63

B2: human recombinant pro-MMP-2 (protein)
chain: APSPIIKFPGDVAPKTDKELAVQYLNTFYGCPKESCNLFVLKDTLKKMQKFFGLPQTGDLDQNTIETMRKPRCGNPDVANYNFFPRKPKWDKNQITYRIIGYTPDLDPETVDDAFARAFQVWSDVTPLRFSRIHDGEADIMINFGRWEHGDGYPFDGKDGLLAHAFAPGTGVGGDSHFDDDELWTLGEGQVVRVKYGNADGEYCKFPFLFNGKEYNSCTDTGRSDGFLWCSTTYNFEKDGKYGFCPHEALFTMGGNAEGQPCKFPFRFQGTSYDSCTTEGRTDGYRWCGTTEDYDRDKKYGFCPETAMSTVGGNSEGAPCVFPFTFLGNKYESCTSAGRSDGKMWCATTANYDDDRKWGFCPDQGYSLFLVAAHEFGHAMGLEHSQDPGALMAPIYTYTKNFRLSQDDIKGIQELYGASPDIDLGTGPTPTLGPVTPEICKQDIVFDGIAQIRGEIFFFKDRFIWRTVTPRDKPMGPLLVATFWPELPEKIDAVYEAPQEEKAVFFAGNEYWIYSASTLERGYPKPLTSLGLPPDVQRVDAAFNWSKNKKTYIFAGDKFWRYNEVKKKMDPGFPKLIADAWNAIPDNLDAVVDLQGGGHSYFFKGAYYLKLENQSLKSVKFGSIKSDWLGC
cleavage of recombinant galectin-3 (Western blot) [4]: The cleavage products were not seen when galectin-3 was incubated alone or with pro-MMPs

B3: human recombinant pro-MMP-9 (protein)
chain: APRQRQSTLVLFPGDLRTNLTDRQLAEEYLYRYGYTRVAEMRGESKSLGPALLLLQKQLSLPETGELDSATLKAMRTPRCGVPDLGRFQTFEGDLKWHHHNITYWIQNYSEDLPRAVIDDAFARAFALWSAVTPLTFTRVYSRDADIVIQFGVAEHGDGYPFDGKDGLLAHAFPPGPGIQGDAHFDDDELWSLGKGVVVPTRFGNADGAACHFPFIFEGRSYSACTTDGRSDGLPWCSTTANYDTDDRFGFCPSERLYTQDGNADGKPCQFPFIFQGQSYSACTTDGRSDGYRWCATTANYDRDKLFGFCPTRADSTVMGGNSAGELCVFPFTFLGKEYSTCTSEGRGDGRLWCATTSNFDSDKKWGFCPDQGYSLFLVAAHEFGHALGLDHSSVPEALMYPMYRFTEGPPLHKDDVNGIRHLYGPRPEPEPRPPTTTTPQPTAPPTVCPTGPPTVHPSERPTAGPTGPPSAGPTGPPTAGPSTATTVPLSPVDDACNVNIFDAIAEIGNQLYLFKDGKYWRFSEGRGSRPQGPFLIADKWPALPRKLDSVFEERLSKKLFFFSGRQVWVYTGASVLGPRRLDKLGLGADVAQVTGALRSGRGKMLLFSGRRLWRFDVKAQMVDPRSASEVDRMFPGVPLDTHDVFQYREKAYFCQDRFYWRVSSRSELNQVDQVGYVTYDILQCPED
cleavage of recombinant galectin-3 (Western blot) [4]: The cleavage products were not seen when galectin-3 was incubated alone or with pro-MMPs

B4: activated human recombinant MMP-2 (protein)
chain: YNFFPRKPKWDKNQITYRIIGYTPDLDPETVDDAFARAFQVWSDVTPLRFSRIHDGEADIMINFGRWEHGDGYPFDGKDGLLAHAFAPGTGVGGDSHFDDDELWTLGEGQVVRVKYGNADGEYCKFPFLFNGKEYNSCTDTGRSDGFLWCSTTYNFEKDGKYGFCPHEALFTMGGNAEGQPCKFPFRFQGTSYDSCTTEGRTDGYRWCGTTEDYDRDKKYGFCPETAMSTVGGNSEGAPCVFPFTFLGNKYESCTSAGRSDGKMWCATTANYDDDRKWGFCPDQGYSLFLVAAHEFGHAMGLEHSQDPGALMAPIYTYTKNFRLSQDDIKGIQELYGASPDIDLGTGPTPTLGPVTPEICKQDIVFDGIAQIRGEIFFFKDRFIWRTVTPRDKPMGPLLVATFWPELPEKIDAVYEAPQEEKAVFFAGNEYWIYSASTLERGYPKPLTSLGLPPDVQRVDAAFNWSKNKKTYIFAGDKFWRYNEVKKKMDPGFPKLIADAWNAIPDNLDAVVDLQGGGHSYFFKGAYYLKLENQSLKSVKFGSIKSDWLGC
cleavage of recombinant galectin-3 (Western blot) [1]: The H64P mutant produced a ~27-kDa polypeptide upon incubation with MMP-2 indicating that it is cleaved at Gly32-Ala33 | cleavage of recombinant galectin-3 (Western blot) [2]: Double mutation at A33G and H64P showed complete resistance to cleavage by both MMP-2 and MMP-9 | cleavage of recombinant galectin-3 (Western blot) [3]: Wild type and A33G galectin-3 produced a polypeptide of ~22 kDa consistent with cleavage at Ala62-Tyr63 | cleavage of recombinant galectin-3 (Western blot) [4]: Wild type and A33G galectin-3 produced a polypeptide of ~22 kDa consistent with cleavage at Ala62-Tyr63
